Patent US20030229005A1

Experiments:
stromelysin 1 = stromelysin 1 (UniProt P08254); test: cell-based or functional assay
[1] = molecular target: human Collagenase-3 (human) (UniProt P45452); test: cell-based or functional assay

stromelysin 1, sequence (P08254 100-477 limits assumed): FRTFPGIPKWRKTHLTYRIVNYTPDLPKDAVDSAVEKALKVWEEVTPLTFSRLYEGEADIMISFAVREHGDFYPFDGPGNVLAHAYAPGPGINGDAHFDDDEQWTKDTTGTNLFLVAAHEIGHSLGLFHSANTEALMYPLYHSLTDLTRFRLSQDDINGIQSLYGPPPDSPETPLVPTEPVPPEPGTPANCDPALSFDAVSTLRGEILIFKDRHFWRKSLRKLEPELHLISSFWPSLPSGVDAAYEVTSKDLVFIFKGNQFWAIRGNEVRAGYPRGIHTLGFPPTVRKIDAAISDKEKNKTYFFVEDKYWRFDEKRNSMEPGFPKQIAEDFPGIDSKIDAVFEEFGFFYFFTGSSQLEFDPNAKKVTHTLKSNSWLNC

Question: How did the Average Percent Inhibition from 1.1 to 6.6 Hours, Type II Collagen 0.18 ug/ml (stromelysin 1) turn out when “bovine type II collagen (from UniProt P02459 182-1241)” was run?
Answer: Its Average Percent Inhibition from 1.1 to 6.6 Hours, Type II Collagen 0.18 ug/ml is 15%.

Question: What about the Average Percent Inhibition from 1.1 to 6.6 Hours, Type II Collagen 0.54 ug/ml (stromelysin 1) of the same substance?
Answer: Its Average Percent Inhibition from 1.1 to 6.6 Hours, Type II Collagen 0.54 ug/ml is 13%.

Question: And the Average Percent Inhibition from 1.1 to 6.6 Hours, Type II Collagen 1.63 ug/ml (stromelysin 1)?
Answer: Its Average Percent Inhibition from 1.1 to 6.6 Hours, Type II Collagen 1.63 ug/ml is 19%.

Question: And the Average Percent Inhibition from 1.1 to 6.6 Hours, Type II Collagen 4.89 ug/ml (stromelysin 1)?
Answer: Its Average Percent Inhibition from 1.1 to 6.6 Hours, Type II Collagen 4.89 ug/ml is 12%.

Question: What about the Average Percent Inhibition from 1.1 to 6.6 Hours, Type II Collagen 14.67 ug/ml (stromelysin 1) of the same substance?
Answer: The Average Percent Inhibition from 1.1 to 6.6 Hours, Type II Collagen 14.67 ug/ml was 18%.

Question: What about the Average Percent Inhibition from 1.1 to 6.6 Hours, Type II Collagen 44.00 ug/ml (stromelysin 1) of the same substance?
Answer: The Average Percent Inhibition from 1.1 to 6.6 Hours, Type II Collagen 44.00 ug/ml was 19%.

Question: And the Average Percent Inhibition, 0.10-1.10 h, TypeIICOL 1.6 ug/ul (stromelysin 1)?
Answer: Its Average Percent Inhibition, 0.10-1.10 h, TypeIICOL 1.6 ug/ul is -10%.

Question: And the Average Percent Inhibition, 0.10-1.10 h, TypeIICOL 4.9 ug/ul (stromelysin 1)?
Answer: The Average Percent Inhibition, 0.10-1.10 h, TypeIICOL 4.9 ug/ul was 50%.

Question: And the Average Percent Inhibition, 0.10-1.10 h, TypeIICOL 15 ug/ul (stromelysin 1)?
Answer: Its Average Percent Inhibition, 0.10-1.10 h, TypeIICOL 15 ug/ul is 57%.

Question: What about the Average Percent Inhibition, 0.10-1.10 h, TypeIICOL 44 ug/ul (stromelysin 1) of the same substance?
Answer: Its Average Percent Inhibition, 0.10-1.10 h, TypeIICOL 44 ug/ul is 62%.

Question: What about the Average Percent Inhibition, 0.10-1.10 h, TypeIICOL .18 ug/ul (stromelysin 1) of the same substance?
Answer: The Average Percent Inhibition, 0.10-1.10 h, TypeIICOL .18 ug/ul was 22%.

Question: And the Average Percent Inhibition, 0.10-1.10 h, TypeIICOL .55 ug/ul (stromelysin 1)?
Answer: The Average Percent Inhibition, 0.10-1.10 h, TypeIICOL .55 ug/ul was 43%.

Question: What about the Average Percent Inhibition, 1.10-2.10 h, TypeIICOL 1.6 ug/ul (stromelysin 1) of the same substance?
Answer: The Average Percent Inhibition, 1.10-2.10 h, TypeIICOL 1.6 ug/ul was 24%.

Question: And the Average Percent Inhibition, 1.10-2.10 h, TypeIICOL 4.9 ug/ul (stromelysin 1)?
Answer: Its Average Percent Inhibition, 1.10-2.10 h, TypeIICOL 4.9 ug/ul is 23%.

Question: What about the Average Percent Inhibition, 1.10-2.10 h, TypeIICOL 15 ug/ul (stromelysin 1) of the same substance?
Answer: The Average Percent Inhibition, 1.10-2.10 h, TypeIICOL 15 ug/ul was 28%.

Question: What about the Average Percent Inhibition, 1.10-2.10 h, TypeIICOL 44 ug/ul (stromelysin 1) of the same substance?
Answer: Its Average Percent Inhibition, 1.10-2.10 h, TypeIICOL 44 ug/ul is 32%.

Question: What about the Average Percent Inhibition, 1.10-2.10 h, TypeIICOL .18 ug/ul (stromelysin 1) of the same substance?
Answer: The Average Percent Inhibition, 1.10-2.10 h, TypeIICOL .18 ug/ul was 22%.

Question: And the Average Percent Inhibition, 1.10-2.10 h, TypeIICOL .55 ug/ul (stromelysin 1)?
Answer: Its Average Percent Inhibition, 1.10-2.10 h, TypeIICOL .55 ug/ul is 26%.

Question: And the Average Percent Inhibition, 2.10-3.10 h, TypeIICOL 1.6 ug/ul (stromelysin 1)?
Answer: Its Average Percent Inhibition, 2.10-3.10 h, TypeIICOL 1.6 ug/ul is 22%.

Question: And the Average Percent Inhibition, 2.10-3.10 h, TypeIICOL 4.9 ug/ul (stromelysin 1)?
Answer: Its Average Percent Inhibition, 2.10-3.10 h, TypeIICOL 4.9 ug/ul is 11%.

Question: What about the Average Percent Inhibition, 2.10-3.10 h, TypeIICOL 15 ug/ul (stromelysin 1) of the same substance?
Answer: Its Average Percent Inhibition, 2.10-3.10 h, TypeIICOL 15 ug/ul is 18%.

Question: And the Average Percent Inhibition, 2.10-3.10 h, TypeIICOL 44 ug/ul (stromelysin 1)?
Answer: The Average Percent Inhibition, 2.10-3.10 h, TypeIICOL 44 ug/ul was 18%.

Question: What about the Average Percent Inhibition, 2.10-3.10 h, TypeIICOL .18 ug/ul (stromelysin 1) of the same substance?
Answer: The Average Percent Inhibition, 2.10-3.10 h, TypeIICOL .18 ug/ul was 15%.

Question: And the Average Percent Inhibition, 2.10-3.10 h, TypeIICOL .55 ug/ul (stromelysin 1)?
Answer: Its Average Percent Inhibition, 2.10-3.10 h, TypeIICOL .55 ug/ul is 14%.

Question: What about the Average Percent Inhibition, 3.10-4.10 h, TypeIICOL 1.6 ug/ul (stromelysin 1) of the same substance?
Answer: The Average Percent Inhibition, 3.10-4.10 h, TypeIICOL 1.6 ug/ul was 18%.

Question: What about the Average Percent Inhibition, 3.10-4.10 h, TypeIICOL 4.9 ug/ul (stromelysin 1) of the same substance?
Answer: Its Average Percent Inhibition, 3.10-4.10 h, TypeIICOL 4.9 ug/ul is 8%.

Question: And the Average Percent Inhibition, 3.10-4.10 h, TypeIICOL 15 ug/ul (stromelysin 1)?
Answer: The Average Percent Inhibition, 3.10-4.10 h, TypeIICOL 15 ug/ul was 14%.

Question: What about the Average Percent Inhibition, 3.10-4.10 h, TypeIICOL 44 ug/ul (stromelysin 1) of the same substance?
Answer: The Average Percent Inhibition, 3.10-4.10 h, TypeIICOL 44 ug/ul was 14%.

Question: What about the Average Percent Inhibition, 3.10-4.10 h, TypeIICOL .18 ug/ul (stromelysin 1) of the same substance?
Answer: The Average Percent Inhibition, 3.10-4.10 h, TypeIICOL .18 ug/ul was 12%.

Question: And the Average Percent Inhibition, 3.10-4.10 h, TypeIICOL .55 ug/ul (stromelysin 1)?
Answer: The Average Percent Inhibition, 3.10-4.10 h, TypeIICOL .55 ug/ul was 10%.

Question: What about the Average Percent Inhibition, 4.10-5.10 h, TypeIICOL 1.6 ug/ul (stromelysin 1) of the same substance?
Answer: Its Average Percent Inhibition, 4.10-5.10 h, TypeIICOL 1.6 ug/ul is 17%.

Question: And the Average Percent Inhibition, 4.10-5.10 h, TypeIICOL 4.9 ug/ul (stromelysin 1)?
Answer: Its Average Percent Inhibition, 4.10-5.10 h, TypeIICOL 4.9 ug/ul is 8%.

Question: What about the Average Percent Inhibition, 4.10-5.10 h, TypeIICOL 15 ug/ul (stromelysin 1) of the same substance?
Answer: The Average Percent Inhibition, 4.10-5.10 h, TypeIICOL 15 ug/ul was 13%.

Question: And the Average Percent Inhibition, 4.10-5.10 h, TypeIICOL 44 ug/ul (stromelysin 1)?
Answer: Its Average Percent Inhibition, 4.10-5.10 h, TypeIICOL 44 ug/ul is 14%.

Question: And the Average Percent Inhibition, 4.10-5.10 h, TypeIICOL .18 ug/ul (stromelysin 1)?
Answer: Its Average Percent Inhibition, 4.10-5.10 h, TypeIICOL .18 ug/ul is 12%.

Question: What about the Average Percent Inhibition, 4.10-5.10 h, TypeIICOL .55 ug/ul (stromelysin 1) of the same substance?
Answer: The Average Percent Inhibition, 4.10-5.10 h, TypeIICOL .55 ug/ul was 8%.

Question: What about the Average Percent Inhibition, 5.10-6.10 h, TypeIICOL 1.6 ug/ul (stromelysin 1) of the same substance?
Answer: The Average Percent Inhibition, 5.10-6.10 h, TypeIICOL 1.6 ug/ul was 16%.

Question: And the Average Percent Inhibition, 5.10-6.10 h, TypeIICOL 4.9 ug/ul (stromelysin 1)?
Answer: The Average Percent Inhibition, 5.10-6.10 h, TypeIICOL 4.9 ug/ul was 8%.

Question: What about the Average Percent Inhibition, 5.10-6.10 h, TypeIICOL 15 ug/ul (stromelysin 1) of the same substance?
Answer: The Average Percent Inhibition, 5.10-6.10 h, TypeIICOL 15 ug/ul was 14%.

Question: What about the Average Percent Inhibition, 5.10-6.10 h, TypeIICOL 44 ug/ul (stromelysin 1) of the same substance?
Answer: Its Average Percent Inhibition, 5.10-6.10 h, TypeIICOL 44 ug/ul is 14%.

Question: And the Average Percent Inhibition, 5.10-6.10 h, TypeIICOL .18 ug/ul (stromelysin 1)?
Answer: The Average Percent Inhibition, 5.10-6.10 h, TypeIICOL .18 ug/ul was 12%.

Question: And the Average Percent Inhibition, 5.10-6.10 h, TypeIICOL .55 ug/ul (stromelysin 1)?
Answer: The Average Percent Inhibition, 5.10-6.10 h, TypeIICOL .55 ug/ul was 8%.

Question: What about the Average Percent Inhibition from 1.1 to 6.6 Hours, Type II Collagen 0.18 ug/ml [1] of the same substance?
Answer: The Average Percent Inhibition from 1.1 to 6.6 Hours, Type II Collagen 0.18 ug/ml was -8%.

Question: What about the Average Percent Inhibition from 1.1 to 6.6 Hours, Type II Collagen 0.54 ug/ml [1] of the same substance?
Answer: The Average Percent Inhibition from 1.1 to 6.6 Hours, Type II Collagen 0.54 ug/ml was -11%.

Question: And the Average Percent Inhibition from 1.1 to 6.6 Hours, Type II Collagen 1.63 ug/ml [1]?
Answer: Its Average Percent Inhibition from 1.1 to 6.6 Hours, Type II Collagen 1.63 ug/ml is -11%.

Question: And the Average Percent Inhibition from 1.1 to 6.6 Hours, Type II Collagen 4.89 ug/ml [1]?
Answer: The Average Percent Inhibition from 1.1 to 6.6 Hours, Type II Collagen 4.89 ug/ml was -28%.

Question: And the Average Percent Inhibition from 1.1 to 6.6 Hours, Type II Collagen 14.67 ug/ml [1]?
Answer: The Average Percent Inhibition from 1.1 to 6.6 Hours, Type II Collagen 14.67 ug/ml was -44%.

Question: What about the Average Percent Inhibition from 1.1 to 6.6 Hours, Type II Collagen 44.00 ug/ml [1] of the same substance?
Answer: The Average Percent Inhibition from 1.1 to 6.6 Hours, Type II Collagen 44.00 ug/ml was -53%.

Question: And the Average Percent Inhibition, 0.10-1.10 h, TypeIICOL 1.6 ug/ul [1]?
Answer: Its Average Percent Inhibition, 0.10-1.10 h, TypeIICOL 1.6 ug/ul is 16%.

Question: And the Average Percent Inhibition, 0.10-1.10 h, TypeIICOL 4.9 ug/ul [1]?
Answer: The Average Percent Inhibition, 0.10-1.10 h, TypeIICOL 4.9 ug/ul was 8%.

Question: What about the Average Percent Inhibition, 0.10-1.10 h, TypeIICOL 15 ug/ul [1] of the same substance?
Answer: The Average Percent Inhibition, 0.10-1.10 h, TypeIICOL 15 ug/ul was 6%.

Question: What about the Average Percent Inhibition, 0.10-1.10 h, TypeIICOL 44 ug/ul [1] of the same substance?
Answer: The Average Percent Inhibition, 0.10-1.10 h, TypeIICOL 44 ug/ul was 2%.
